Where a chain is given by its changes, count along the chain named.

Here are results for 16 molecules from patent US20200055939A1 (Genentech, published 2020).

One assay deals with T1, huMICA*008 alpha 3-his (human).
T1 construct: whole construct entry: GS, alpha 3 domain (Thr204-Ser297), GNS, His8; also the construct of the FPOP experiment; also called MICA008.His; MICA*008 alpha3 construct
T1 chain: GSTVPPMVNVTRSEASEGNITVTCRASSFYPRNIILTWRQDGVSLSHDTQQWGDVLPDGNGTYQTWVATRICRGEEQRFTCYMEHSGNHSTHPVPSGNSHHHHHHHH
Kind of assay: SPR, Biacore 8K, antibody on Protein A chip. On the technique in general: In SPR one partner is held on a chip, and binding of the other changes the refractive index at the surface.

The target of the next assay is T2, huMICB*005 alpha 3-his (human).
T2 construct: whole construct entry: GS, alpha 3 domain, GNS, His8; also called MICB005.His; MICB*005 alpha3 construct
T2 chain: T1 chain with R12C, A15V, I35T, D48N, C72R, R73Q, S90G
Briefly: SPR, Biacore 8K, antibody on Protein A chip.

In the next assay the target is T3, huMICA*004 alpha 3-his (human).
T3 construct: whole construct entry: GS, alpha 3 domain, GNS, His8; also called MICA004.His; MICA*004 alpha3 construct
T3 chain: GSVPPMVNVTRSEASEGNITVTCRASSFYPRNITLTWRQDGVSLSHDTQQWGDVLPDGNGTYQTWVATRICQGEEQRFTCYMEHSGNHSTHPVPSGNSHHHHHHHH
Briefly: SPR, Biacore 8K, antibody on Protein A chip.

The target in a further assay is T4, huMICA*002 alpha 3-his (human).
T4 construct: whole construct entry: GS, alpha 3 domain, GNS, His8; also called MICA002.His; MICA*002 alpha3 construct
T4 chain: T1 chain with S28G, R32W, I35T, T37S, R73Q
Kind of assay: SPR, Biacore 8K, antibody on Protein A chip.

The target of assay [1] is T5, MICA*008 on MEL-JUSO cells (human, UniProt Q29983 24-317).
T5 chain: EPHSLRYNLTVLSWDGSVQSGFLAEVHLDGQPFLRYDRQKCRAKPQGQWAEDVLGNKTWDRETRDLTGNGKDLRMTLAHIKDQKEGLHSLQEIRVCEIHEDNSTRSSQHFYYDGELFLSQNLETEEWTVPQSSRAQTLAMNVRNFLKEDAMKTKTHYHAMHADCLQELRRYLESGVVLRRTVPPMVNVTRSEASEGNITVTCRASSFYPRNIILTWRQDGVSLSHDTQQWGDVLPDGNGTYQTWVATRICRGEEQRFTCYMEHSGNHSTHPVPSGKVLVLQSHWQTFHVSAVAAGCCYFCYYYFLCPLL
Briefly: cell-based or functional assay.

Assay [2] addresses MICA*004 on HCC1534 cells (human, UniProt Q29983 24-383). Briefly: cell-based or functional assay.
The target of assay [3] is MICB*005 on HCC1534 cells (human). Briefly: cell-based or functional assay.
Throughout, for % Inhibition: test concentration or dose not given here.

Method for huMICA*002 alpha 3-his: (§1) A Protein A sensorchip (GE Healthcare) was used following manufacturer provided protocols to capture humanized anti-MICA/B antibodies. The MICA/B alleles were passed over. Antibody binding was measured to human MICA 002, 004, 008 and MICB 005 alpha 3 domains (His tagged, in-house). Sensograms for binding of MICA/B were recorded using an injection time of 2 minutes with a flow rate of 30 ml/min, at a temperature of 25° C., and with a running buffer of 10 mM HEPES, pH 7.4, 150 mM NaCl, 3mM EDTA, and 0.005% Tween 20. After injection, disassociation of the alpha 3 domain from the antibody was monitored for 10 minutes in running buffer. The surface was regenerated between binding cycles with a 60 ul injection of 10 mM Glycine HCl pH 1.5. […] The data was analyzed using a 1:1 binding model. Sensograms of MICA alleles binding to captured anti-MICA antibody were used to calculate the dissociation constant (Kd).
Method for huMICA*004 alpha 3-his: as §1
Method for huMICA*008 alpha 3-his: as §1
Method for huMICB*005 alpha 3-his: as §1

B1: 1D5v24 (antibody, IgG1, V domains shown)
VH: EVQLVQSGAEVKKPGASVKVSCKASGYAFTSQNIYWVRQAPGQGLEWIGYIEPYNVVPMYNPKFKGRVTITVDKSTSTAYLELSSLRSEDTAVYYCARSGSSNFDYWGQGTLVTVSS
VL: DIQLTQSPSSLSASVGDRVTITCSASSSISSHYLHWYQQKPGKSPKLLIYRTSNLASGVPSRFSGSGSGTDYTLTISSLQPEDFATYYCQQGSSLPLTFGQGTKVEIK
notes: humanized variant of 1D5
Turning to B1, the Kd with huMICA*008 alpha 3-his amounted to 1.41 nM; with huMICB*005 alpha 3-his it was 1.62 nM; with huMICA*004 alpha 3-his it was 0.9 nM; with huMICA*002 alpha 3-his it was 1.21 nM. Moreover, the “% Inhibition” value in assay [1] was 65%; in assay [2], 50%; in assay [3], 43%.

B2: 1D5v29 (antibody, IgG1, V domains shown)
VH: B1 VH with V2I, M59V, V68A, I70L
VL: B1 VL
notes: humanized variant of 1D5
In the case of B2, the Kd in the assay with huMICA*008 alpha 3-his was found to be 1.65 nM; in the assay with huMICB*005 alpha 3-his it was 3.86 nM; with huMICA*004 alpha 3-his, 1.58 nM; with huMICA*002 alpha 3-his, 2.01 nM. Also, the “% Inhibition” value in assay [1] was 57%; in assay [2], 40%; in assay [3] it was -8%.

B3: 1D5v26 (antibody, IgG1, V domains shown)
VH: B1 VH with V72R
VL: B1 VL
notes: humanized variant of 1D5
With B3, the Kd with huMICA*008 alpha 3-his was found to be 3.12 nM; with huMICB*005 alpha 3-his, 7.15 nM; in the assay with huMICA*004 alpha 3-his, 3.17 nM; with huMICA*002 alpha 3-his, 3.9 nM. For the same molecule, the figures for the “% Inhibition” value in assay [1], in assay [2] and in assay [3] were 50%, 37% and 42%, respectively.

B4: 1D5v27 (antibody, IgG1, V domains shown)
VH: B1 VH with V2I, M59A, V68A, I70L
VL: B1 VL
notes: humanized variant of 1D5
B4: the Kd was determined as 1.44 nM in the assay with huMICA*008 alpha 3-his, 3.31 nM in the assay with huMICB*005 alpha 3-his, 1.52 nM with huMICA*004 alpha 3-his and 1.85 nM with huMICA*002 alpha 3-his. Moreover, the “% Inhibition” value is 69% in assay [1], 53% in assay [2] and -8% in assay [3].

B5: 1D5v28 (antibody, IgG1, V domains shown)
VH: B1 VH with V2I, M59L, V68A, I70L
VL: B1 VL
notes: humanized variant of 1D5
Turning to B5, the Kd with huMICA*008 alpha 3-his was 0.84 nM; in the assay with huMICB*005 alpha 3-his, 1.49 nM; with huMICA*004 alpha 3-his, 0.87 nM; with huMICA*002 alpha 3-his it was 1.19 nM. The “% Inhibition” value in assay [1] is 0%; in assay [2] it was 3%; in assay [3], 36%.

B6: 1D5v25 (antibody, IgG1, V domains shown)
VH: B1 VH with K74T
VL: B1 VL
notes: humanized variant of 1D5
B6: the Kd with huMICA*008 alpha 3-his was determined as 0.93 nM; in the assay with huMICB*005 alpha 3-his it was 1.84 nM; with huMICA*004 alpha 3-his, 0.96 nM; with huMICA*002 alpha 3-his, 1.22 nM. Moreover, the “% Inhibition” value in assay [1] was 62%; in assay [2] it was 46%; in assay [3], 28%.

B7: 13A9v2 (antibody, IgG1, V domains shown)
VH: EVQLVQSGAEVKKPGASVKVSCKASGYAFTNYLIEWVRQAPGQGLEWIGAINPGSGATNYNEKFKDRATLTADKSTNTAYLELSSLRSEDTAVYFCARFLGNYFDNWGQGTLVTVSS
VL: DIQMTQSPSSLSASVGDRVTITCRASGNIHSYLAWYQQKPGKAPKLLIYYAETLADGVPSRFSGSGSGTDFTLTISSLQPEDFATYYCQQFWTTPYTFGQGTKVEIK
notes: humanized variant of 13A9
With B7, the Kd in the assay with huMICA*008 alpha 3-his was determined as 2.56 nM; with huMICB*005 alpha 3-his, 3.15 nM; with huMICA*004 alpha 3-his, 5.32 nM; in the assay with huMICA*002 alpha 3-his, 4.44 nM. Moreover, the “% Inhibition” value in assay [1] came out at 12%; in assay [2], 10%; in assay [3], 60%.

B8: 13A9v5 (antibody, IgG1, V domains shown)
VH: B7 VH with A16S, L81M
VL: B7 VL
notes: humanized variant of 13A9
Take B8: the Kd stood at 3.68 nM with huMICA*008 alpha 3-his, 3.17 nM with huMICB*005 alpha 3-his, 5.52 nM in the assay with huMICA*004 alpha 3-his and 4.27 nM with huMICA*002 alpha 3-his. The “% Inhibition” value is 4% in assay [1], 9% in assay [2] and 63% in assay [3].

B9: 13A9v3 (antibody, IgG1, V domains shown)
VH: B7 VH with A68V, L70I, K74T, N77S, F95Y
VL: B7 VL with A43S, I48V, F71Y, Y87F
notes: humanized variant of 13A9
B9: the Kd was found to be 3.85 nM with huMICA*008 alpha 3-his, 3.15 nM with huMICB*005 alpha 3-his, 4.79 nM in the assay with huMICA*004 alpha 3-his and 4.97 nM in the assay with huMICA*002 alpha 3-his. Further, the “% Inhibition” value in assay [1] turned out to be 2%; in assay [2], 25%; in assay [3] it was 42%.

B10: 13A9v6 (antibody, IgG1, V domains shown)
VH: B7 VH with A16S, L81M
VL: B7 VL with A43S, I48V, F71Y, Y87F
notes: humanized variant of 13A9
On to B10, for which the Kd in the assay with huMICA*008 alpha 3-his was 2.8 nM; with huMICB*005 alpha 3-his, 2.45 nM; with huMICA*004 alpha 3-his, 3.77 nM; in the assay with huMICA*002 alpha 3-his it was 3.94 nM. Also, the “% Inhibition” value in assay [1] came to 8%; in assay [2], 16%; in assay [3], 6%.

B11: 13A9v4 (antibody, IgG1, V domains shown)
VH: B7 VH
VL: B7 VL with A43S, I48V, F71Y, Y87F
notes: humanized variant of 13A9
For the molecule B11, the dissociation constant (Kd) with huMICA*008 alpha 3-his was determined as 2.72 nM; with huMICB*005 alpha 3-his, 2.4 nM; in the assay with huMICA*004 alpha 3-his it was 3.69 nM; with huMICA*002 alpha 3-his it was 3.93 nM. In addition, the “% Inhibition” value is -31% in assay [1], -29% in assay [2] and 63% in assay [3].

B12: 13A9v1 (antibody, IgG1, V domains shown)
VH: B7 VH with A68V, L70I, K74T, N77S, F95Y
VL: B7 VL
notes: humanized variant of 13A9
Turning to B12, the Kd came to 5.6 nM with huMICA*008 alpha 3-his, 5.12 nM in the assay with huMICB*005 alpha 3-his, 8.37 nM with huMICA*004 alpha 3-his and 5.87 nM with huMICA*002 alpha 3-his. Also, the entries for the “% Inhibition” value in assay [1], in assay [2] and in assay [3] were 10%, 12% and 43%, respectively.

B13: 15F11v2 (antibody, IgG1, V domains shown)
VH: EIQLVQSGAEVKKPGASVKVSCKPSGYAFTSNNIYWVRQAPGQGLEWIGYIDPYIGRIIYNQQFKDRATLTVDKSTSTAYLELSSLRSEDTAVYYCSRSGERSNFDYWGQGTLVTVSS
VL: EIVLTQSPATLSLSPGERATLSCSASSSISSNYLHWYQQKPGQAPRLLIYRTSNLASGIPARFSGSGSGTDFTLTISSLEPEDFAVYYCQQGGSLPLTFGQGTKVEIK
notes: humanized variant of 15F11
In the case of B13, the Kd was 3.17 nM with huMICA*008 alpha 3-his, 6.71 nM in the assay with huMICB*005 alpha 3-his, 2.74 nM with huMICA*004 alpha 3-his and 5.05 nM in the assay with huMICA*002 alpha 3-his. Moreover, the “% Inhibition” value in assay [1] came to 62%; in assay [2] it was 43%; in assay [3] it was 35%.

B14: 15F11v3 (antibody, IgG1, V domains shown)
VH: B13 VH with I2V, P24A, A68V, L70I, V72A, K74T
VL: B13 VL with A44S, I59V, F72Y
notes: humanized variant of 15F11
Take B14: the Kd amounted to 5.56 nM with huMICA*008 alpha 3-his, 14.1 nM with huMICB*005 alpha 3-his, 5.7 nM with huMICA*004 alpha 3-his and 12.7 nM in the assay with huMICA*002 alpha 3-his. Further, the entries for the “% Inhibition” value in assay [1], in assay [2] and in assay [3] were 50%, 39% and -49%, respectively.

B15: 15F11v4 (antibody, IgG1, V domains shown)
VH: B13 VH
VL: B13 VL with A44S, I59V, F72Y
notes: humanized variant of 15F11
On to B15, for which the Kd in the assay with huMICA*008 alpha 3-his worked out at 2.58 nM; with huMICB*005 alpha 3-his, 5.72 nM; with huMICA*004 alpha 3-his, 2.58 nM; with huMICA*002 alpha 3-his it was 4.75 nM. Besides, the “% Inhibition” value in assay [1] was -19%; in assay [2] it was -34%; in assay [3], 44%.

B16: 15F11v1 (antibody, IgG1, V domains shown)
VH: B13 VH with I2V, P24A, A68V, L70I, V72A, K74T
VL: B13 VL
notes: humanized variant of 15F11
Turning to B16, the Kd in the assay with huMICA*008 alpha 3-his was found to be 6.52 nM; with huMICB*005 alpha 3-his it was 16.1 nM; with huMICA*004 alpha 3-his, 5.96 nM; with huMICA*002 alpha 3-his it was 12.8 nM. In addition, the “% Inhibition” value in assay [1] turned out to be 4%; in assay [2] it was 3%; in assay [3], 43%.

As a reminder, the Kd is the constant that tells how readily two partners part at equilibrium. A high value points to lower affinity. In general, % Inhibition refers to the relative decrease from the control value, in per cent.
